The subject of assay [1] is biotin-labeled T-47D culture supernatant. In words: Affinity of antibody, Biacore, sensor chip SA. The conditions noted are these: biotin-labeled T-47D culture supernatant solid-phased. Format: binding, human. The protocol: In addition, a human breast cancer cultured cell strain T-47D (ATCC Number HTB-133) was cultured on a Dulbecco's modified Eagle medium (DMEM; manufacture by Invitrogen), the supernatant was concentrated with Amicon ultra-100 (manufactured by MILLIPORE), and substituted with a 20 mM HEPES buffer (pH 7.6) containing 0.15 M NaCl. Sulfo-NHS-Biotin (manufactured by PIERCE) was added to 200 μl of the T-47D culture supernatant, followed by reaction on ice for 2 hours. Thereafter, substitution with a 20 mM Tris buffer (pH 7.6) containing 0.15 M NaCl was performed with a PD-10 column (manufactured by GE Healthcare) to obtain a biotin-labeled T-47D culture supernatant.
On the technique in general: SPR reads the build-up and loss of mass on a sensor chip optically.

In assay [2] the test system is human breast cancer cell strain T-47D. Kind of assay: Binding of antibody to cancer cell with FACS. Format: cell-based. How it is done: Whether the MUC1 protein expressed on a surface of a cancer cell membrane and the 1B2 antibody bound thereto was investigated by FACS. A human breast cancer cell strain T-47D (ATCC, HTB-133) and a human mammary gland epithelial cell 184A1 (ATCC, CRL-8798) which had been trypsinized with Trypsin (manufactured by Invitrogen) were washed once with a FACS buffer (PBS containing 5% FCS, 0.05% sodium azide), and suspended in 100 μl of a FACS buffer containing 10 μg/ml 1B2 antibody and the reaction was allowed to proceed at room temperature for 2 hours. The resultant reaction product was washed with a FACS buffer two times, and suspended in 200 μl of FITC-Goat Anti-Mouse IgG (manufactured by ZYMED), and the reaction was allowed to proceed at room temperature for 1 hour. After washing with a FACS buffer two times, analysis was performed by FACSAria (manufactured by BD). As a result, in T-47D, the 1B2 antibody greatly shifted the fluorescent signal of FACS (about 300-fold) as compared with a control mouse IgG2a antibody (manufactured by SIGMA-ALDRICH), while in 184A, fluorescent shift by 1B2 was scarcely seen (about 2-fold).

Assay [3] addresses T1, cancer-associated structure and normal tissue-associated structure of MUC1 (Homo sapiens, UniProt P15941).
T1 construct: Synthesis of MUC1 Tn20-mer Glycopeptide; made in house; host or cells: chemical solid-phase synthesis, partly with enzymatic sugar extension
In words: Sugar chain specificity, overall statements from competitive ELISA. It is filed as binding. How it is done:
(§1) Such specificity can be expressed by a difference in cross reactivity. The cross reactivity is obtained by a calculation equation of (IC50 for cancer-associated structure 2,3ST/IC50 for sugar chain structure to be compared)×100(%). As used herein, inclusion of specificity refers to a difference of 2 fold or more.
(§2) Ten days after cell fusion, screening of a specific antibody-producing cell was performed. ELISA was used in screening is as follows. To each well of a 384-well microtiter plate (manufactured by Nunc) 35 μl of a Tris buffer (50 mM Tris-HCl, pH 7.5) containing 0.35 μg of an anti-mouse IgG antibody (manufactured by Shibayagi Co., Ltd.) was added to immobilize the antibody at 4° C. for 16 hours. After these wells were washed with 90 μl of a washing solution (physiological saline containing 0.01% Tween 20) once, 200 μl of BLOCK ACE (manufactured by Dainippon Sumitomo Pharma Co., Ltd.) was added, and this was allowed to stand at room temperature for 2 hours for blocking (an anti-mouse IgG antibody solid-phased plate). After each well was washed with 90 μl of a washing solution once, 10 μl of a hybridoma culture supernatant, 10 μl of a buffer A (50 mM Tris buffer containing 0.5% bovine serum albumin, 0.01% Tween 80, 0.05% Proclin 150, and 0.15 M. NaCl, pH 7.4), and 10 μl of a buffer A containing 0.01 ng of Biotin-2,3-ST(DT*R)-20 (Compound No. 16 of Table 1) and 2 ng of Streptavidin-HRP (manufactured by PIERCE) were added to perform a reaction at 4° C. for 16 hours. Then, after each well was washed with 90 μl of a washing solution three times, 25 μl of TMB+-Substrate-Chromogen (manufactured by DAKO) was added to develop a color at room temperature for 30 minutes, 25 μl of 0.05 M sulfuric acid was added to stop the reaction, and absorbance was measured at 450 nm. […] Using a mouse monoclonal antibody isotyping ELISA kit (manufactured by BD Bioscience), a subclass of the antibody was determined and, as a result, an isotype of 1B2 was IgG2a.
(§3) Fifteen (15) μl of a buffer A containing a MUC1 antibody was added to an anti-mouse IgG antibody solid-phased plate and the reaction was allowed to proceed at room temperature for 3 hours. […] Then, after each well was washed with 90 μl of a washing solution three times, 15 μl of TMB+-Substrate-Chromogen (manufactured by DAKO) was added to develop a color at room temperature for 30 minutes, 15 μl of 0.05 M sulfuric acid was added to stop the reaction, and absorbance at 450 nm was measured.
(In general: In an ELISA, binding on a coated surface is turned into a signal by an enzyme label.)

Assay [4] has as its target T2, 2,3-ST(VT*S)-20 (Compound No. 12) (Homo sapiens, UniProt P15941).
T2 construct: Synthesis of MUC1 Tn20-mer Glycopeptide; made in house; host or cells: chemical solid-phase synthesis with enzymatic sialylation
Kind of assay: Sugar chain specificity, competitive ELISA against Biotin-Tn(DT*R)-100. It is filed as binding. The following applies: glycopeptide 2,3ST(VT*S) (Compound No. 12). How it is done:
as §1, §2, §3

Assay [5] addresses T3, T(DT*R)-20 (Compound No. 1) (Homo sapiens, UniProt P15941).
T3 construct: Synthesis of MUC1 Tn20-mer Glycopeptide; made in house; host or cells: chemical solid-phase synthesis
The assay is described as above. Format: binding. The following applies: glycopeptide T (Compound No. 1). How it is done:
as §1, §2, §3

In assay [6] the target is T4, 2,3-ST6SL(DT*R)-20 (Compound No. 8) (Homo sapiens, UniProt P15941).
T4 construct: Synthesis of MUC1 Tn20-mer Glycopeptide; made in house; host or cells: chemical solid-phase synthesis (Compound 5), then enzymatic sugar extension
T4 sequence (P15941 136-155): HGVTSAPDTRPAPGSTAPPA
The assay is described as above. Format: binding. The conditions noted are these: glycopeptide 2,3ST6SL (Compound No. 8). The protocol: as §1, §2, §3

The target in assay [7] is T5, dST(DT*R)-20 (Compound No. 11) (Homo sapiens, UniProt P15941).
T5 construct: Synthesis of MUC1 Tn20-mer Glycopeptide; made in house; host or cells: chemical solid-phase synthesis with enzymatic sialylation
Described as above. Format: binding. The conditions noted are these: glycopeptide dST (Compound No. 11). How it is done:
as §1, §2, §3

The target of assay [8] is T6, 2,3ST6G(DT*R)-20 (Compound No. 6) (Homo sapiens, UniProt P15941).
T6 construct: Synthesis of MUC1 Tn20-mer Glycopeptide; made in house; host or cells: chemical solid-phase synthesis (Compound 5), then enzymatic sialylation
The description is as above. It is filed as binding. The conditions noted are these: glycopeptide 2,3ST6G (Compound No. 6). How it is done: as §1, §2, §3

For assay [9], the target named is T7, C6(DT*R)-20 (Compound No. 9) (Homo sapiens, UniProt P15941).
T7 construct: Synthesis of MUC1 Tn20-mer Glycopeptide; made in house; host or cells: chemical solid-phase synthesis
Described as above. It is filed as binding. The following applies: glycopeptide C6 (Compound No. 9). The protocol:
as §1, §2, §3

Experimental findings from US8722856B2, “Anti-MUC1 antibody” (National University Corporation Hokkaido University, priority 2008, dated 2014) are described below.

B1: 1B2: mouse monoclonal anti-MUC1 antibody, isotype IgG2a, clone from immunization with 2,3-ST(DT*R)-20 conjugated to BSA (antibody, V domains shown)
VH: MEWIWIFLFILSGTAGVQSQVQLQQSGAELARPGASVKLSCKASGYTFTNYGLSWVKQRTGQGLEWIGENHPGSGIIYHNEKFRGKATLTADKSSSTAYVQLSSLTSEDSAVYFCARSSGTRGFAYWGQGTLVTVSA
VL: MKLPVRLLVLMFWIPASSSDVLMTQTPLSLPVSLGDQASISCRSSQSIVHSNGNTYLEWYLQKPGQSPKLLIYKVSNRFSGVPDRFSGSGSGTDFTLKISRVEAEDLGVYYCFQGSHGPWTFGGGTKLEIKRA
modifications: Antibody 1B2 VH sequence; Antibody 1B2 VL sequence
What is called Kd is the free concentration of one partner at which half of the binding sites on the other are occupied at equilibrium, for simple one-to-one binding. As for B1, in [1], the Kd1 worked out at 0.0012 s⁻¹. Moreover, the ka1 in assay [1] was 470000 M⁻¹ s⁻¹. In assay [1] (read-out: dissociation constant KD), the Kd was 2.6 nM. Besides, the “reaction with breast cancer cell (FACS)” value in [2] is given as “strongly reacts”. Further, in assay [2] (10 μg/ml antibody), the “shift of fluorescent signal of FACS as compared with control mouse IgG2a antibody” value is listed as “about 300 fold”. Also, the “IC50 for a cancer-associated structure” value in assay [3] is on record as at most 100 nM. In assay [3], the “cross reactivity for the normal tissue-associated structure, letting 2,3ST to be 100%” value is at most 1%. Further, in [3], the “specificity for a cancer-associated structure as compared with that for a normal tissue-associated structure” value was “at least 100 fold”. The “cross reactivity with a sugar chain structure highly expressed in normal cells” value in assay [3] (2,3ST6L(DT*R)-20, 2,3-ST6SL(DT*R)-20) was “low cross reactivity”. The “affinity for a sugar chain structure highly expressed in cancer cells” value in assay [3] (T(DT*R)-20, 2,3-ST(DT*R)-20, Tn(DT*R)-20) is “high affinity”. For the same molecule, the “Cross reactivity letting 2,3-ST to be 100%” value in [4] is under 0.030%; in assay [5] it was 96%; in assay [6] it was 0.064%; in assay [7], 3.0%; in assay [8] it was 0.061%; in assay [9] it was 0.75%.
